Results: US20200190507A1, “Encoded Solid Phase Compound Library with Polynucleotide Based Barcoding” (The Scripps Research Institute, priority 2016, published 2020)
Entries after “also recorded” stand apart in the source; their conditions may differ.

Test system: ATB serum IgGs
Assay: Antigen competition binding analysis with beads displaying 2-B
Design: species or system human
Settings: for competition with 2-B for binding ATB serum IgGs: pooled ATB serum, beads displaying 2-B, CFP 250 μg/mL

| Molecule | competition with 2-B for binding ATB serum IgGs | ATB IgG binding of Ag85B relative to Ag85A (competition titration with 2-B beads) [fold] |
| --- | --- | --- |
| recombinant Ag85B: Mycobacterium tuberculosis recombinant protein reference standard Ag85B, expressed in E. coli (protein) FSRPGLPVEYLQVPSPSMGRDIKVQFQSGGNNSPAVYLLDGLRAQDDYNGWDINTPAFEWYYQSGLSIVMPVGGQSSFYSDWYSPACGKAGCQTYKWETFLTSELPQWLSANRAVKPTGSAAIGLSMAGSSAMILAAYHPQQFIYAGSLSALLDPSQGMGPSLIGLAMGDAGGYKAADMWGPSSDPAWERNDPTQQIPKLVANNTRLWVYCGNGTPNELGGANIPAEFLENFVRSSNLKFQDAYNAAGGHNAVFNFPPNGTHSWEYWGAQLNAMKGDLQSSLGAG | no binding competition; also recorded: unreactive; also recorded: did not compete |  |
| Ag85B: Mycobacterium tuberculosis purified native protein Ag85B (Gene Rv1886c), Strain H37Rv (protein) FSRPGLPVEYLQVPSPSMGRDIKVQFQSGGNNSPAVYLLDGLRAQDDYNGWDINTPAFEWYYQSGLSIVMPVGGQSSFYSDWYSPACGKAGCQTYKWETFLTSELPQWLSANRAVKPTGSAAIGLSMAGSSAMILAAYHPQQFIYAGSLSALLDPSQGMGPSLIGLAMGDAGGYKAADMWGPSSDPAWERNDPTQQIPKLVANNTRLWVYCGNGTPNELGGANIPAEFLENFVRSSNLKFQDAYNAAGGHNAVFNFPPNGTHSWEYWGAQLNAMKGDLQSSLGAG | compete strongly | ~10 |
